Measurements from article PMC9083827.
Several values for one entry are separate records, joined by “and”; a condition that tells them apart may be missing. Equal values may be shown once.

Target: TraB_(31-110) (plasmid pIP501 (originally isolated from Streptococcus agalactiae, mainly found in Enterococci))
Assay: cross-linking; 10 µg TraB_(31-110) in 50 µl with 0/0.001/0.01/0.05/0.1% glutaraldehyde in 50 mM Bicine, 150 mM NaCl, 1 mM DTT, 20 min at room temperature; Tween-20 micelles; SDS-PAGE

Substance: TraB_(31-110) (domain or fragment)
- stoichiometry N: 2 and 4
